Data: patent US8507656B2, “Stabilized angiopoietin-2 antibodies and uses thereof” (MedImmune Limited, priority 2008, dated 2013)
Entries after “also recorded” stand apart in the source; their conditions may differ.

Key:
H460 xenograft tumors = assay type: in vivo; settings: 3.19.3 10 mg/kg 2×wk i.p., AZD4877 10 mg/kg q4dx2 i.p., combination of both
Method: The anti-tumor activity of 3.19.3 was evaluated in combination with AZD4877 in the
H460 xenograft model of lung cancer. H460 cells were cultured in flasks as routine until the cells reached sub-confluence. Cell suspensions containing approximately 3×10E6 cells were injected subcutaneously into the right flank of male NCr nu/nu mice. When the tumor volume reached 200 mm^3, the mice were randomized in treatment groups of 8-10 mice and the treatments were initiated. 3.19.3 (10 mg/kg) in saline was injected intraperitoneally, twice per week for 2 weeks. AZD4877 (10 mg/kg) was administered by intraperitoneal administration following a q4d schedule. The dimensions of each tumor and body weights were measured at least twice per week. The volume of the tumor was calculated as: Volume=Length×(Width)×0.5 (cm^3).

Tie2 = Tie2 (Homo sapiens, UniProt Q02763); settings: Maisonpierre et al., Science 277:55-60 (1997); read-out: affinity (Kd) for Tie2; cited from earlier work
Chain of Tie2 (Q02763 23-1124, species assumed): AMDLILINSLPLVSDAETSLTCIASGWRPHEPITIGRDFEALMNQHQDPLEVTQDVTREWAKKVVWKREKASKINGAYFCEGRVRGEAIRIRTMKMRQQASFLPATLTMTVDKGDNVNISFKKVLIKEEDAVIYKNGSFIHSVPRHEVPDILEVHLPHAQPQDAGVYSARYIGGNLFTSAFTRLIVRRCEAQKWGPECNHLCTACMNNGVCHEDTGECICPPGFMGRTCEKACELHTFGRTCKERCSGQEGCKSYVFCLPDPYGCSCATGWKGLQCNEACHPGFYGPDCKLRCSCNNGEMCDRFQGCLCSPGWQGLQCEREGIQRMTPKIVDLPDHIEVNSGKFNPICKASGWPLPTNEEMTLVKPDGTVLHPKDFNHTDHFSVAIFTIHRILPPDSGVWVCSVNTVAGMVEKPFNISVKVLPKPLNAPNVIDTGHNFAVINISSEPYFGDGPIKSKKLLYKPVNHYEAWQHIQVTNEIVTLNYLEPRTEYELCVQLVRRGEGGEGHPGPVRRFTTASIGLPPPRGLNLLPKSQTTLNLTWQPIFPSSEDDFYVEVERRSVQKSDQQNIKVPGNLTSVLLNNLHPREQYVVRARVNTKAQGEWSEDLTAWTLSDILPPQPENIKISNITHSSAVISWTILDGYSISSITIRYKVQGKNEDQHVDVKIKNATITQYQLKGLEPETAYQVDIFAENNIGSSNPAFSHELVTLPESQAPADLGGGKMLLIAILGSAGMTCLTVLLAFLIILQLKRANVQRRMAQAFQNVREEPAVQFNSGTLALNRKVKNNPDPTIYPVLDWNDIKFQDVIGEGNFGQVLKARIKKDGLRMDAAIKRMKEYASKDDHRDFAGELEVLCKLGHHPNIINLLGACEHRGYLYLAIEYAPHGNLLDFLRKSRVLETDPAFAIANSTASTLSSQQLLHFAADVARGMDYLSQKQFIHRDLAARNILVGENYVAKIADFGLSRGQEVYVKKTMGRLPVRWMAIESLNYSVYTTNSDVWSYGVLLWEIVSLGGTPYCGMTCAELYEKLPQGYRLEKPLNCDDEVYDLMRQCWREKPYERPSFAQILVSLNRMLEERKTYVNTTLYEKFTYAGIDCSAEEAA

[1] = test system: glucose 6 phosphate isomerase (G6PI) arthritis; test: G6PI arthritis disease model, prophylactic; assay type: in vivo, male DBA/1J mice; settings: for clinical signs of disease progression (arthritic score) (in words): single agents
[2] = test system: glucose 6 phosphate isomerase (G6PI) arthritis; test: G6PI arthritis disease model, therapeutic; assay type: in vivo, male DBA/1J mice; settings: after onset of clinical disease, MEDI1/5 alone, etanercept both doses
Method: The effect of treatment with MEDI 1/5 with or without etanercept was evaluated following onset of clinical disease in the glucose 6 phosphate isomerase (G6PI) arthritis disease model. G6PI-induced arthritis was induced in male DBA/1J mice and animals dosed therapeutically with test treatments.
Materials and Methods: The mice in this study were prepared similarly as presented in Example 12.
Dosing: This was a rolling admissions study: once an animal reached a clinical score of 3.5 to 5.0, it was randomly assigned to treatment groups (as outlined below) and dosing began. The day of initial dosing became study day 0 for that animal. Treatment groups were similar to those presented in Example 12.
Termination: Study was terminated 12 days post treatment initiation. No further endpoints were assessed on these animals.

Ang-2 = molecular target: T1, Ang-2 (Homo sapiens, UniProt O15123); test: Competitive Tie-2 Fc/Ang2 ELISA; assay type: binding; settings: competition with immobilized Tie-2; IgG1 or IgG2 format
T1 construct: purchased R & D Systems
T1 sequence (O15123 19-496): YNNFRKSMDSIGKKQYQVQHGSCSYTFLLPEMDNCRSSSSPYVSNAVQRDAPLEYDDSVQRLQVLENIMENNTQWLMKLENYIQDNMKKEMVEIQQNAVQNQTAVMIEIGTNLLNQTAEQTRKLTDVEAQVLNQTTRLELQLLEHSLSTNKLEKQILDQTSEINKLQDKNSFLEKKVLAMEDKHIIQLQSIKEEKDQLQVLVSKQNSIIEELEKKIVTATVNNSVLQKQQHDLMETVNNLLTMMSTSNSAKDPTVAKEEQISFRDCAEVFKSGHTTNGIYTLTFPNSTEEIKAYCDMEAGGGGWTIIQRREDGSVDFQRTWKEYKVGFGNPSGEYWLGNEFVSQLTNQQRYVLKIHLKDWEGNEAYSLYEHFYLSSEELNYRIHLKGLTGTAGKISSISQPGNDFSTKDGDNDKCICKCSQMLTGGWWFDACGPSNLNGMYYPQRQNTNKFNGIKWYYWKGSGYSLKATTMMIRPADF
Method: In this example the Ang-2 antibody, 3.19.3, and a modified 3.19.3 antibody comprising a C49T (MEDI1/5) substitution were analyzed for Ang-2 binding in a competitive ELISA format assay.
Competitive Tie-2 Fc/Ang2 ELISA: Maxisorp ELISA plates (Nunc, Rochester, N.Y.) were coated with 100 μl of 4 μg/ml Tie-2 Fc (R & D Systems, Minneapolis, Minn.) in 0.1M carbonate buffer pH 9.4 (Pierce, Rockford, Ill.) and incubated overnight at 4° C. The following day, plates were blocked for 1 hour at room temperature with 200 μl of phosphate buffered saline (PBS) (Invitrogen, Carlsbad, Calif.) containing 0.5% bovine serum albumin (BSA) (Sigma, St. Louis, Mo.) and 0.1% Tween-20 (Sigma, St. Louis, Mo.). Plates were washed 3 times with wash buffer (PBS containing 0.05% Tween-20). 50 μl of 11-point serial tertiary dilutions (30 μg/ml high concentration) of 3.19.3 or modified anti-Ang2 antibody were plated, with PBS as a negative control. For antibody capture, 50 μl of 200 ng/ml Biotin Ang2 (R & D Systems, Minneapolis, Minn.) were added and plates were incubated for 2 hours at room temperature. Plates were washed 3 times with wash buffer. Following the wash, 100 ul of 1:5000 streptavidin HRP (Pierce, Rockford, Ill.) dilution in wash buffer were added and incubated for 1 hour at room temperature. […] Optical densities were measured at 450 nm with a microplate reader (Molecular Devices, Sunnyvale, Calif.).

retinal angiogenesis = test: Retinal vascularization in mouse pups; assay type: in vivo, CD1 pups
Method: […] At p10, pups were anesthetized with isoflurane and then perfused with 12.5 mg/ml FITC-dextran (Vector Labs). A small slit was made in the cornea and the entire eye was removed from the optic cup before placing into 10% neutral buffered formalin. After 1 hour fixation in formalin, eyes were briefly rinsed in PBS and then placed in a dish of PBS for dissection. Retinas were carefully dissected and cut into a clover leaf formation prior to mounting onto a glass slide with Vectashield (Vector Labs). Images of flatmounts were examined and acquired using fluorescence microscopy (Nikon) with attached digital camera system.

[3] = test system: FGF2 mediated angiogenesis; test: FGF2-induced Matrigel plug assay; assay type: in vivo, athymic mouse
Method: The anti-Ang-2 antibody, MEDI1/5 was evaluated for anti-angiogenic effects in a FGF2 (basic FGF)-induced Matrigel™ plug assay. Recombinant murine FGF2 (rmFGF basic; R&D Systems) was pre-mixed with Matrigel™ (reduced growth factor, phenol red-free; Trevigen) at 1 μg/ml. Each 5-6 week old female athymic mouse was subcutaneously implanted with 500 gl of FGF2/Matrigel™ mixture. Antibody MEDI1/5 was administered 10 minutes prior to FGF2/Matrigel™ implantation and continued every three days given intraperitoneal at 1, 10, and 20 mg/kg for a total of 3 doses. The extent of angiogenesis was assessed after 10 days by measuring dextran functioning vessels. Mice were intervenously injected with 100 gl FITC-Dextran (250,000MW; Sigma) at 25 mg/ml in saline. Twenty minutes post FITC-Dextran injection, mice are humanely euthanized and plugs dissected out. Plugs are then placed in lysing matrix tubes A (MP Biomedicals) containing 1 ml of PBS and homogenized on FastPrep machine (MP Biomedicals) for 60 seconds at 6.0 M/S. Samples were then centrifuged at 10,000 rpm for 5 minutes and supernatant collected. 200 μl of each sample (in duplicates) was then placed into a white, clear bottom 96 well plate and FITC output was read on EnVision instrument (Perkin Elmer).
For histology purposes, plugs were harvested and placed into 10% neutral-buffered formalin, processed and then paraffin embedded. The paraffin embedded tissues were then sectioned and stained with hematoxylin and eosin.

For `Cc1ccc(C(=O)N(CCCN)C(c2nc3snc(C)c3c(=O)n2Cc2ccccc2)C(C)C)cc1` (centres unmarked) [AZD4877], the “% tumor growth inhibition” value (H460 xenograft tumors) was 50%.

In the case of “Ang-2: angiopoietin, ligand of Tie2; antigen of the antibodies”, the Kd (Tie2) is listed as 3 nM.

In the case of etanercept, the “% Disease free joints” value ([1]; 1 mg/kg etanercept, 1 mg/kg) is reported as 22%, the “% Disease free joints” value ([1]; 4 mg/kg etanercept, 4 mg/kg) is reported as 53% and the “% Disease free joints” value ([1]; 4 mg/kg etanercept, listed as enbrel, 4 mg/kg) is reported as 53%. The “clinical signs of disease progression (arthritic score) (in words)” value (from here on “clinical signs of disease progression”) [1] was “Reductions in clinical signs of disease progression; also recorded: reduction” and the “clinical signs of disease progression” value [2] was “no effect on disease progression”.

B1: Ang-1: angiopoietin, ligand of Tie2 (protein, UniProt Q15389 16-498, looked up)
Angiopoietin-1: HIGCSNQRRSPENSGRRYNRIQHGQCAYTFILPEHDGNCRESTTDQYNTNALQRDAPHVEPDFSSQKLQHLEHVMENYTQWLQKLENYIVENMKSEMAQIQQNAVQNHTATMLEIGTSLLSQTAEQTRKLTDVETQVLNQTSRLEIQLLENSLSTYKLEKQLLQQTNEILKIHEKNSLLEHKILEMEGKHKEELDTLKEEKENLQGLVTRQTYIIQELEKQLNRATTNNSVLQKQQLELMDTVHNLVNLCTKEGVLLKGGKREEEKPFRDCADVYQAGFNKSGIYTIYINNMPEPKKVFCNMDVNGGGWTVIQHREDGSLDFQRGWKEYKMGFGNPSGEYWLGNEFIFAITSQRQYMLRIELMDWEGNRAYSQYDRFHIGNEKQNYRLYLKGHTGTAGKQSSLILHGADFSTKDADNDNCMCKCALMLTGGWWFDACGPSNLNGMFYTAGQNHGKLNGIKWHYFKGPSYSLRSTTMMIRPLDF
In the case of B1, the Kd (Tie2) is given as 3 nM.

B2: MEDI1/5: anti-Ang-2 antibody with MEDI1 light chain (SEQ ID No. 3) and MEDI5 heavy chain (SEQ ID No. 7); isotype not stated (antibody)
VH: QVQLVESGGGVVQPGRSLRLSCAASGFTFTNYGMHWVRQAPGKGLEWVAVISHDGNNKYYVDSVKGRFTISRDNSKNTLYLQMNSLRAEDTAVYYCAREGIDFWSGLNWFDPWGQGTLVTVSS
light: EIVLTQSPGTLSLSPGERATLSCRASQSITGSYLAWYQQKPGQAPRLLITGASSWATGIPDRFSGSGSGTDFTLTISRLEPEDFAVYYCQQYSSSPITFGQGTRLEIKRTVAAPSVFIFPPSDEQLKSGTASVVCLLNNFYPREAKVQWKVDNALQSGNSQESVTEQDSKDSTYSLSSTLTLSKADYEKHKVYACEVTHQGLSSPVTKSFNRGEC
In the case of B2, the “binding profile for Ang-2 compared to 3.19.3 (in words)” value (Ang-2) is reported as “very similar binding profile”, the “extent of retina vasculature (in words)” value (retinal angiogenesis; MEDI1/5 0.3 mg/kg) is reported as “extend to the outer edge of retina” and the “retinal angiogenesis (in words)” value (retinal angiogenesis; MEDI1/5 0.3, 1.0 and 10 mg/kg i.p. at p1, p3, p5, retinas at p10) is reported as “dose-dependent inhibition of retinal angiogenesis; also recorded: inhibited in a dose-dependent fashion”. For the same molecule, the “vessels in plugs, hematoxylin and eosin staining (in words)” value ([3]; FGF2+MEDI1/5 plugs vs FGF2 plugs alone) was “fewer vessels; also recorded: lower level of vascularization”, the “amount of FITC-dextran present in plugs” value ([3]; MEDI1/5 1, 10, and 20 mg/kg i.p., 3 doses, FGF2 1 μg/ml plugs (FGF2 alone approximately 0.78 μg)) was 0.05 to 3 µg and the “FITC-dextran content / angiogenesis in plugs (in words)” value ([3]; MEDI1/5 1, 10 or 20 mg/kg i.p., vs FGF2 plugs) was “significant reduction in FITC-dextran; also recorded: significant reduction in angiogenesis”. For the same molecule, the “% Disease free joints” value ([1]; 10 mg/kg MEDI1/5, 10 mg/ml Isotype control (so in the source), 10 mg/kg) was 31%, the “clinical signs of disease progression” value [1] was “Reductions in clinical signs of disease progression; also recorded: reduction” and the “clinical signs of disease progression” value [2] was “modest reductions in clinical signs of disease progression”.
